Experimental findings from the nanobody polyreactivity screen of Harvey et al. (2022) are described below.

This data set in a line: yeast display, Sf9 membrane polyspecificity reagent, FACS + sequencing; frameworks hold sequencing errors. An outline of the steps: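 Galactose induction of a Saccharomyces cerevisiae BJ5465 synthetic nanobody display library ran 36–48 hours. The cells were then stained for 1 hour at 4 °C with 10% biotinylated, detergent-solubilized Sf9 membrane reagent, pulled down on streptavidin microbeads and FACS-sorted into low and high (top ~1%) gates on expression and reagent-binding fluorescence. Labels for polyreactivity follow the gate of origin.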
Take “QVQLVESGGGLVQAGGSLRLSCAASGITIGSNVMGWYRQAPGKERELVAAISQSGGRTYYADSVKGRFTISRDNAKNTVYLQMNSLKPEYTAVYYCAKRQRSFYGRPMGDYWGQGTQVTVSS”: the “polyreactivity (PSR sort gate)” value is reported as “high polyreactivity”. For the sequence “QVQLVESGGGLVQAGGSLRLSCAASGITIKRYDMGWYRQAPGKEREFVATISQSGTSTYYADSVKGRFTISRDNAKNTVYLQMNSLKPEDTAVYYCAAYYIGYWYGYYSWGQGTQVTVSS”, the “polyreactivity (PSR sort gate)” value was “low polyreactivity”. With “QVQLVESGGGLVQAGGSLRLSCAASGITIPYNAMGWYRQAPGKERELVAVISWSGGSTYYADSVKGRFTISRDNAKNTVYLQMNRQKPEDTAFYYCAAEPGGGYYYWGQGTKVTVSS” the entry was “low polyreactivity”. To “QVQLVESGGGLVQAGGSLRLSCAASGITIRLSALGGYRQAPGNERELVAAITSGGSTYADSVKGRFTISRDNAKNTVYLQMNSLKPEDTAVYYCNAEALVNGGYDYWGQGTQVTVSS” belongs “high polyreactivity”; to “QVQLVESGGGLVQAGGSLRLSCAASGITIRRYAMGWYIQAPGKERELVAAITTGGGGTYYADSVKGRFTISRDNAKNTVYLQMNSLKPEDTAVYYCAATYWRTYPSYYWGQGTQVTVSS”, “high polyreactivity”; to “QVQLVESGGGLVQAGGSLRLSCAASGITISVNDMGWYRQAPGKERELVAAISSGDSTNYADSVKGRFTISRDNAKNTVYLQMNSLKPEDTAVSYCAALEGSLTGWQTYDYWGQGTQVTVSS”, “low polyreactivity”.

“QVQLVESGGGLVQAGGSLRLSCAASGITIVNYVMGWYRQPPGKERELVAAISIGGGTYYADSVKGRFTISRDNAKNTVYLQMNSLKPEDTAVYYWNASYGGLSFYIGVYDTGYDYWGQGTQVTVSS”: the “polyreactivity (PSR sort gate)” value is “low polyreactivity”.

Take “QVQLVESGGGLVQAGGSLRLSCAASGITIWNNAMGWSRQAPGKESELVATISSNGGRTYYADSVKGRFTISRDNAKNTVYLQMNSLKPEDTAVYYCNAARRAYGYNYWGQGTQVTVSS”: the “polyreactivity (PSR sort gate)” value is reported as “low polyreactivity”.

With “QVQLVESGGGLVQAGGSLRLSCAASGITLARNAMGWYRQAPGKERELVASITWSGGTTYYADSVKGRFTISRDNAKNTVYLQMNSLKPEDTAVYYCAASAKLHFYRTYRYNYWGQGTQVTVSS”, the “polyreactivity (PSR sort gate)” value was “high polyreactivity”. With “QVQLVESGGGLVQAGGSLRLSCAASGITLAYNVMGWYRQAPGKERELVAGITRSGGSTYYADSVKGRFTISRDNAKNTVYLQMNSLKPEDTAVYYCAAGFTYLNYTPWYRFNYWGQGTQVTVSS” the entry was “high polyreactivity”.

As for “QVQLVESGGGLVQAGGSLRLSCAASGITLDNYVMGWYRQAPGKERELVAAISRTSGRTYYADSVKGRFTISRDNAKNTVYLQMNSLKPEDTAVYYCAAETGYTIRYDYWGQGTQVTVSS”, the “polyreactivity (PSR sort gate)” value is recorded as “high polyreactivity”. To “QVQLVESGGGLVQAGGSLRLSCAASGITLGTNAMGWYRQAPGKERELVAAIRRSGGSTYYADSVKGRFTISRDNAKNTVYLQMNSLKPEDTAVYYCAAVVSVNMYWGQGTQVTVSS” belongs “low polyreactivity”; to “QVQLVESGGGLVQAGGSLRLSCAASGITLGTYAMGWSRQAPGKERELVAGISTSGGSTYYADSVKGPFTISRDNAKNTVYLQMNSLKPEETAVYYCAKRRYGSGYYRYRGYDYWGQGTQVTVSS”, “high polyreactivity”; to “QVQLVESGGGLVQAGGSLRLSCAASGITLGYYVMGWYRQAPGKERELVAAISSSGGRTYYADSVKGRFTISRDTAKNTVYLQMNSLKPEDTAVYYCAADLGRGIYDYWGQGTQVTVSS”, “low polyreactivity”. To “QVQLVESGGGLVQAGGSLRLSCAASGITLTNNAMGWSRHAPGKERELVAAITRSGGSTYYADSVKGRFTISRDNAKNTVYLLMNSLKPEVTAVYCAARWYSYSGSIRSYDYWGQGTQVTVSS” belongs “low polyreactivity”; to “QVQLVESGGGLVQAGGSLRLSCAASGITLVYYVMGWYRQAPGKERELVAAISSGGITYYADSVKGRFTISRDNAKNTVYLQMNSLKPEDTAVYYCAAESRQYVRTYGYWGQGTQVTVSS”, “low polyreactivity”; to “QVQLVESGGGLVQAGGSLRLSCAASGITLYDNAMGWYRQEPGKERELVAAINVNDVSTYYADSVKGRFTISRDNAKNTVYLQMNSLKPEDTAVYYCAADSLYYGIGYWVVRYDYWGQGTQVTVSS”, “low polyreactivity”.

In the case of “QVQLVESGGGLVQAGGSLRLSCAASGITLYGYTMGWYRQAPGKERELVAGISRGGSTYYADSVKGRFTISRYNEKNTVFLQLNSLKPEDSEVYYCAAAGWYRGDYWGQGTQVTVSS”, the “polyreactivity (PSR sort gate)” value is “high polyreactivity”. With “QVQLVESGGGLVQAGGSLRLSCAASGITSRRYAMGWYRKAPGKEREFVAAIRTICGSTYYADSVKGRFTISRDNAKNTVYLQMNSLKPEDTAVYYCAARYFLSRSGASHLDSWGQGTQVTVSS” the entry was “high polyreactivity”. To “QVQLVESGGGLVQAGGSLRLSCAASGITSWYYAMGWYRQAPGKERELVAAITSDGRTNYADSVKGRFTISRDNAKNTVYLQMNSLKPEDTAVYYCAAARRVGVSHYRYGYWGQGTQVTVSS” belongs “high polyreactivity”.

Consider “QVQLVESGGGLVQAGGSLRLSCAASGITVGDYAMGWYRQAPGKEREVVAAISYTGGSTYYADSVKGRFTISRDNAQNTGYLQMNSLKPEDTAVYYCAADGYRDYDSWGQGTQVTVSS”, for which the “polyreactivity (PSR sort gate)” value was “high polyreactivity”. With “QVQLVESGGGLVQAGGSLRLSCAASGITVYLYAMGWYRQAPGKERELVAAISSSGGSTYYADSVKGRFTISRDNAKNTVYLQMNSLKPEDTAVYYCAAVYYTSVTIYDYWGQGTQVTVSS” the entry was “high polyreactivity”; with “QVQLVESGGGLVQAGGSLRLSCAASGITYCANTMGWYRQAPGKERELVADITVTGDGTYYADSVKGRFTISRDNAKNTVYLQMNSLKPEDTAVYYCAADFWLVSFQWDFEYDYWGQGTQVTVSS”, “low polyreactivity”; with “QVQLVESGGGLVQAGGSLRLSCAASGITYPGYAMGWYRQAPGKERELVAVIRKSGTSTYYADSVKGRFTISRDNAKNTVYLQMNSLKPEDTAVYYCAAGGPSTLDDYWGQGTQVTVSS”, “low polyreactivity”. To “QVQLVESGGGLVQAGGSLRLSCAASGITYSGNAMRWYRQAPAKERELVAAISGRGGSTYYADSVKGRFTISRDNAKNTVYLLMNSLKPDDTAVYYCNADVYPYKLALPAGMGYWGQGTQVTVSS” belongs “high polyreactivity”; to “QVQLVESGGGLVQAGGSLRLSCAASGLIFADYTMGWYRQAPGKERELVAVITDGDSTYYADSVKGRFTISLDNAKNTVYLQMNTLKPEDTAVSYCAAESAGSFLDYYWAYGYWGQGTQVTVSS”, “low polyreactivity”; to “QVQLVESGGGLVQAGGSLRLSCAASGLIFAGYAKGWYRQAPGKERELVAAISTSGGRTYYADSVKGRFTISRDNAKNTVYLQMNSLKPEDTAVYYCAAYPVHGKTQELAKEDYWGQGTQVTVSS”, “high polyreactivity”. With “QVQLVESGGGLVQAGGSLRLSCAASGLIFAKYAMGWYRQAPGKERELVAAITSSGAGTYYADSVKGRFTISRDNAKNTVYLQMNCLKPEDTAVYYCATGPDPKYDYWGQGTQVTVSS” the entry was “high polyreactivity”. “QVQLVESGGGLVQAGGSLRLSCAASGLIFAKYAMGWYRQAPGKERELVAGITSGGGTYYADSVKGRFTISRDNAKNTVYLQMNSLKPEDTAVYYCAVGREYFRWIRYDYDYWGQGTQVTVSS”: the “polyreactivity (PSR sort gate)” value is reported as “low polyreactivity”.

As for “QVQLVESGGGLVQAGGSLRLSCAASGLIFANNTMGWYRQAPGKERELVAAISATGDGNTYYADSVKGRFTISRDNAKNTVYLQMNSLKPEDTAVYYCNRLPQYALPYRHNGYWGQGTQVTVSS”, the “polyreactivity (PSR sort gate)” value is listed as “low polyreactivity”.
